Experimental findings from patent publication US20120269821A1 are described below.

Bounds are passed on as bounds.

Some targets named below: TRO.11 envelope (HIV-1); B.SF162 envelope (HIV-1); C.TV-1 envelope (HIV-1); Du422.1 envelope (HIV-1).
What all share (experiment): cell-based or functional assay
For experiment [1], the target named is CAP206.1.B5 envelope (HIV-1).
The target of experiment [2] is Du156.12 envelope (HIV-1).
Experiment [3] has as its target SC422661.8 envelope (HIV-1).
For experiment [4], the target named is QH0692.42 envelope (HIV-1).
Experiment [5] concerns the target B.BG1168 envelope (HIV-1).
The target of experiment [6] is ZM197M.PB7 envelope (HIV-1).
Experiment [7] deals with COT6.15 envelope K677A (HIV-1).
The target in experiment [8] is COT6.15 envelope N668A (HIV-1).
Experiment [9] has as its target COT6.15 envelope, wild type (HIV-1).
Experiment [10] deals with COT6.15 envelope L663A (HIV-1).
Experiment [11] has as its target COT6.15 envelope S671A (HIV-1).
Experiment [12] has as its target COT6.15 envelope F673A (HIV-1).
The target in experiment [13] is COT6.15 envelope K667A (HIV-1).
Experiment [14] has as its target COT6.15 envelope I675A (HIV-1).
Experiment [15] addresses COT6.15 envelope S665A (HIV-1).
Experiment [16] has as its target COT6.15 envelope W666A (HIV-1).
For experiment [17], the target named is COT6.15 envelope W680A (HIV-1).
Experiment [18] deals with COT6.15 envelope W672A (HIV-1).
In experiment [19] the target is COT6.15 envelope A662G (HIV-1).
Experiment [20] deals with COT6.15 envelope D664A (HIV-1).
For experiment [21], the target named is COT6.15 envelope L669A (HIV-1).
For experiment [22], the target named is COT6.15 envelope L679A (HIV-1).
The target of experiment [23] is COT6.15 envelope T676A (HIV-1).
The target of experiment [24] is COT6.15 envelope W678A (HIV-1).
In experiment [25] the target is COT6.15 envelope D674N (HIV-1).
Experiment [26] has as its target COT6.15 envelope W670A (HIV-1).
Experiment [27] has as its target COT6.15 envelope D674S (HIV-1).
The target of experiment [28] is COT6.15 envelope D674A (HIV-1).

Regarding mAb 2F5 (Polymun Scientific) (antibody), the IC50 in TZM-bl cells was over 25000 µg/mL in experiment [1]; over 25000 µg/mL in experiment [2]; over 25000 µg/mL in the experiment with TRO.11 envelope (HIV-1); 1810 µg/mL in experiment [4]; over 25000 µg/mL in experiment [6]; over 25000 µg/mL in the experiment with Du422.1 envelope (HIV-1). Further, the IC50 in TZM-bl/FcγRI cells is over 25000 µg/mL in experiment [1]; over 25000 µg/mL in experiment [2]; under 10 µg/mL in experiment [3]; under 10 µg/mL in experiment [4]; 60 µg/mL in experiment [6]; over 25000 µg/mL in the experiment with Du422.1 envelope (HIV-1). The 50% neutralization level was determined as 0.1 µg/mL with B.SF162 envelope (HIV-1), 0.32 µg/mL in experiment [5] and 10.9 µg/mL with C.TV-1 envelope (HIV-1).
As to recombinant 2F5 IgG antibody, the 50% neutralization level with B.SF162 envelope (HIV-1) was 0.3 µg/mL; in experiment [5] it was 1.17 µg/mL; with C.TV-1 envelope (HIV-1), 34.5 µg/mL.
On to mAb Z13e1 (antibody), for which the IC50 in TZM-bl cells in experiment [2] is 4700 µg/mL; in the experiment with TRO.11 envelope (HIV-1), 13300 µg/mL; in experiment [4] it was 46000 µg/mL; in experiment [6], 30.
With mAb 4E10 (antibody), the IC50, pseudovirus neutralization in experiment [7] was 0.05 µg/mL; in [8], 1.3 µg/mL; in [9] it was 0.9 µg/mL; in experiment [10] it was 0.02 µg/mL; in [11], 0.04 µg/mL; in experiment [12] it was over 25 µg/mL. Further, the IC50, pseudovirus neutralization in experiment [13] is 0.05 µg/mL; in experiment [14] it was 0.04 µg/mL; in experiment [15], 0.14 µg/mL; in experiment [16] it was 0.51 µg/mL; in experiment [17], 10.9 µg/mL; in experiment [18] it was over 25 µg/mL. For the same substance, the IC50, pseudovirus neutralization in [19] came out at 0.12 µg/mL; in [20] it was 0.77 µg/mL; in experiment [21] it was 0.05 µg/mL; in experiment [22] it was 0.09 µg/mL; in [23] it was 21.8 µg/mL; in experiment [24], 0.05 µg/mL. In addition, the IC50, pseudovirus neutralization in experiment [25] was found to be 0.33 µg/mL; in experiment [26] it was 0.11 µg/mL; in experiment [27], 2.49 µg/mL; in experiment [28], 1.4 µg/mL. Besides, the Ratio (mutant IC50)/(wild-type IC50) is 0.1 in experiment [7]; 1.4 in experiment [8]; 0 in experiment [10]; 0 in [11]; over 25 in [12]; 0.1 in experiment [13]. Further, the Ratio (mutant IC50)/(wild-type IC50) in [14] is 0; in experiment [15], 0.2; in experiment [16], 0.6; in experiment [17] it was 12.1; in [18] it was over 25; in [19], 0.1. Further, the Ratio (mutant IC50)/(wild-type IC50) in [20] was 0.9; in experiment [21] it was 0.1; in experiment [22] it was 0.1; in [23], 24.2; in experiment [24] it was 0.1; in experiment [25] it was 0.4. The Ratio (mutant IC50)/(wild-type IC50) worked out at 0.1 in [26], 2.8 in experiment [27] and 1.6 in [28]. For the same substance, the IC50 in TZM-bl cells in experiment [1] came to 0.1; in [2] it was 200 µg/mL; in the experiment with TRO.11 envelope (HIV-1), 300 µg/mL; in [4], 6500 µg/mL; in experiment [6], 1100 µg/mL; with Du422.1 envelope (HIV-1), 300 µg/mL. Also, the IC50 in TZM-bl/FcγRI cells in [1] was under 10 µg/mL; in experiment [2] it was under 10 µg/mL; in experiment [3] it was under 10 µg/mL; in experiment [4], 110 µg/mL; in [6], under 10 µg/mL; with Du422.1 envelope (HIV-1), under 10 µg/mL.
